The supplement of paper PMC9112550, “Optimization of the antimicrobial peptide Bac7 by deep mutational scanning” (BMC Biology, 2022)

System: Escherichia coli TOP10
Experiment: shrunken log2 fold change of peptide-encoding DNA abundance (4.5 h post-induction vs induction); higher = less antimicrobial activity (less host growth inhibition)
Details: time post-induction: 4.5 h; library: site-saturation at positions 5, 18, 19, 20
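Further: peptides expressed intracellularly from a pBAD plasmid library in pooled LB shake-flask culture, induced with 0.3% L-arabinose, DNA abundance read by NGS, three biological replicates, DESeq2 with apeglm shrinkage.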

Sequence	shrunken log2 fold change
RRIRTRPPRLPRPRPRPNLHPRP	-0.725
RRIRTRPPRLPRPRPRPNLNPRP	-0.55
RRIRTRPPRLPRPRPRPNLTPRP	-0.00355
RRIRTRPPRLPRPRPRPNMHPRP	0.561
RRIRTRPPRLPRPRPRPNNEPRP	-0.581
RRIRTRPPRLPRPRPRPNPCPRP	0.0479
RRIRTRPPRLPRPRPRPNPRPRP	0.23
RRIRTRPPRLPRPRPRPNPYPRP	-0.121
RRIRTRPPRLPRPRPRPNSVPRP	-0.0853
RRIRTRPPRLPRPRPRPNVMPRP	0.0814
RRIRTRPPRLPRPRPRPNVSPRP	-0.0389
RRIRTRPPRLPRPRPRPNWSPRP	0.0464
RRIRTRPPRLPRPRPRPPAFPRP	-0.216
RRIRTRPPRLPRPRPRPPDDPRP	0.408
RRIRTRPPRLPRPRPRPPDYPRP	-0.0981
RRIRTRPPRLPRPRPRPPEQPRP	0.151
RRIRTRPPRLPRPRPRPPGDPRP	0.189
RRIRTRPPRLPRPRPRPPGFPRP	0.287
RRIRTRPPRLPRPRPRPPHDPRP	0.275
RRIRTRPPRLPRPRPRPPHIPRP	-0.471
RRIRTRPPRLPRPRPRPPHNPRP	0.0332
RRIRTRPPRLPRPRPRPPHPPRP	0.255
RRIRTRPPRLPRPRPRPPIVPRP	-0.175
RRIRTRPPRLPRPRPRPPKGPRP	0.107
RRIRTRPPRLPRPRPRPPKPPRP	0.304

Sequence	shrunken log2 fold change
RRIRTRPPRLPRPRPRPPMLPRP	0.0279
RRIRTRPPRLPRPRPRPPNIPRP	-0.355
RRIRTRPPRLPRPRPRPPNWPRP	0.845
RRIRTRPPRLPRPRPRPPPMPRP	0.54
RRIRTRPPRLPRPRPRPPPVPRP	0.652
RRIRTRPPRLPRPRPRPPQFPRP	0.11
RRIRTRPPRLPRPRPRPPQSPRP	0.441
RRIRTRPPRLPRPRPRPPQTPRP	0.457
RRIRTRPPRLPRPRPRPPREPRP	0.141
RRIRTRPPRLPRPRPRPPSLPRP	-0.11
RRIRTRPPRLPRPRPRPPSRPRP	0.191
RRIRTRPPRLPRPRPRPPTPPRP	0.368
RRIRTRPPRLPRPRPRPPTVPRP	0.44
RRIRTRPPRLPRPRPRPPVSPRP	0.147
RRIRTRPPRLPRPRPRPPVWPRP	0.0152
RRIRTRPPRLPRPRPRPPWAPRP	0.613
RRIRTRPPRLPRPRPRPPYEPRP	0.0319
RRIRTRPPRLPRPRPRPQAAPRP	-0.0432
RRIRTRPPRLPRPRPRPQAFPRP	0.0884
RRIRTRPPRLPRPRPRPQCIPRP	-0.247
RRIRTRPPRLPRPRPRPQCSPRP	0.0299
RRIRTRPPRLPRPRPRPQEYPRP	-0.0331
RRIRTRPPRLPRPRPRPQFEPRP	0.0219
RRIRTRPPRLPRPRPRPQFHPRP	-0.541
RRIRTRPPRLPRPRPRPQFYPRP	-0.791

Sequence	shrunken log2 fold change
RRIRTRPPRLPRPRPRPQHPPRP	0.0586
RRIRTRPPRLPRPRPRPQIAPRP	-0.0663
RRIRTRPPRLPRPRPRPQIGPRP	-0.0138
RRIRTRPPRLPRPRPRPQIYPRP	-0.179
RRIRTRPPRLPRPRPRPQKEPRP	0.0092
RRIRTRPPRLPRPRPRPQKLPRP	-0.364
RRIRTRPPRLPRPRPRPQKSPRP	-0.0823
RRIRTRPPRLPRPRPRPQLEPRP	0.341
RRIRTRPPRLPRPRPRPQLLPRP	0.0259
RRIRTRPPRLPRPRPRPQLNPRP	-0.33
RRIRTRPPRLPRPRPRPQMQPRP	-0.0728
RRIRTRPPRLPRPRPRPQMSPRP	0.056
RRIRTRPPRLPRPRPRPQPCPRP	-0.0212
RRIRTRPPRLPRPRPRPQPGPRP	0.165
RRIRTRPPRLPRPRPRPQPYPRP	-0.322
RRIRTRPPRLPRPRPRPQQQPRP	-0.0474
RRIRTRPPRLPRPRPRPQQVPRP	-0.231
RRIRTRPPRLPRPRPRPQRLPRP	-0.223
RRIRTRPPRLPRPRPRPQSCPRP	0.057
RRIRTRPPRLPRPRPRPQSIPRP	-0.125
RRIRTRPPRLPRPRPRPQTKPRP	0.0553
RRIRTRPPRLPRPRPRPQTLPRP	-0.278
RRIRTRPPRLPRPRPRPQTSPRP	0.413
RRIRTRPPRLPRPRPRPQWGPRP	-0.0978
RRIRTRPPRLPRPRPRPQWMPRP	-0.291

Sequence	shrunken log2 fold change
RRIRTRPPRLPRPRPRPQWTPRP	-1.27
RRIRTRPPRLPRPRPRPQYQPRP	-0.502
RRIRTRPPRLPRPRPRPQYYPRP	-0.266
RRIRTRPPRLPRPRPRPRFGPRP	0.319
RRIRTRPPRLPRPRPRPRGDPRP	0.409
RRIRTRPPRLPRPRPRPRHEPRP	-0.13
RRIRTRPPRLPRPRPRPRMQPRP	0.0874
RRIRTRPPRLPRPRPRPRNLPRP	-0.218
RRIRTRPPRLPRPRPRPRPCPRP	-0.0153
RRIRTRPPRLPRPRPRPRPMPRP	0.184
RRIRTRPPRLPRPRPRPRQAPRP	0.171
RRIRTRPPRLPRPRPRPRQYPRP	-0.302
RRIRTRPPRLPRPRPRPRRHPRP	0.0424
RRIRTRPPRLPRPRPRPRSSPRP	0.0755
RRIRTRPPRLPRPRPRPRTNPRP	-0.192
RRIRTRPPRLPRPRPRPRTQPRP	0.172
RRIRTRPPRLPRPRPRPRWHPRP	0.133
RRIRTRPPRLPRPRPRPRWQPRP	0.47
RRIRTRPPRLPRPRPRPRYQPRP	-0.0799
RRIRTRPPRLPRPRPRPRYWPRP	-0.156
RRIRTRPPRLPRPRPRPSCRPRP	-0.219
RRIRTRPPRLPRPRPRPSFQPRP	-0.427
RRIRTRPPRLPRPRPRPSGSPRP	0.204
RRIRTRPPRLPRPRPRPSIPPRP	-0.356
RRIRTRPPRLPRPRPRPSKIPRP	-0.24

Sequence	shrunken log2 fold change
RRIRTRPPRLPRPRPRPSLPPRP	-0.0317
RRIRTRPPRLPRPRPRPSMYPRP	-0.39
RRIRTRPPRLPRPRPRPSNMPRP	-0.851
RRIRTRPPRLPRPRPRPSQIPRP	-0.0567
RRIRTRPPRLPRPRPRPSRMPRP	-0.0328
RRIRTRPPRLPRPRPRPSRSPRP	-0.0434
RRIRTRPPRLPRPRPRPSSLPRP	-0.0765
RRIRTRPPRLPRPRPRPSSSPRP	-0.164
RRIRTRPPRLPRPRPRPSWHPRP	-0.23
RRIRTRPPRLPRPRPRPSWNPRP	-0.34
RRIRTRPPRLPRPRPRPSWPPRP	0.0669
RRIRTRPPRLPRPRPRPSYYPRP	-0.786
RRIRTRPPRLPRPRPRPTAPPRP	0.159
RRIRTRPPRLPRPRPRPTDSPRP	-0.106
RRIRTRPPRLPRPRPRPTDVPRP	0.284
RRIRTRPPRLPRPRPRPTEIPRP	-0.119
RRIRTRPPRLPRPRPRPTFNPRP	-0.199
RRIRTRPPRLPRPRPRPTFQPRP	0.0412
RRIRTRPPRLPRPRPRPTGYPRP	0.000642
RRIRTRPPRLPRPRPRPTHIPRP	-0.308
RRIRTRPPRLPRPRPRPTIEPRP	-0.297
RRIRTRPPRLPRPRPRPTIHPRP	-0.712
RRIRTRPPRLPRPRPRPTIQPRP	-0.0327
RRIRTRPPRLPRPRPRPTKAPRP	0.249
RRIRTRPPRLPRPRPRPTKEPRP	-0.0327

Sequence	shrunken log2 fold change
RRIRTRPPRLPRPRPRPTKKPRP	0.0786
RRIRTRPPRLPRPRPRPTKRPRP	0.139
RRIRTRPPRLPRPRPRPTLTPRP	0.0461
RRIRTRPPRLPRPRPRPTNRPRP	0.0146
RRIRTRPPRLPRPRPRPTPPPRP	0.589
RRIRTRPPRLPRPRPRPTQEPRP	-0.0182
RRIRTRPPRLPRPRPRPTQSPRP	0.311
RRIRTRPPRLPRPRPRPTQTPRP	-0.0408
RRIRTRPPRLPRPRPRPTSSPRP	0.113
RRIRTRPPRLPRPRPRPTSTPRP	-0.0605
RRIRTRPPRLPRPRPRPTSWPRP	0.139
RRIRTRPPRLPRPRPRPTSYPRP	-0.268
RRIRTRPPRLPRPRPRPTTIPRP	-0.111
RRIRTRPPRLPRPRPRPTVPPRP	0.0189
RRIRTRPPRLPRPRPRPTVQPRP	0.0928
RRIRTRPPRLPRPRPRPTWCPRP	-0.178
RRIRTRPPRLPRPRPRPVAKPRP	0.111
RRIRTRPPRLPRPRPRPVAMPRP	-0.0639
RRIRTRPPRLPRPRPRPVCDPRP	0.0701
RRIRTRPPRLPRPRPRPVDGPRP	0.0538
RRIRTRPPRLPRPRPRPVDVPRP	-0.236
RRIRTRPPRLPRPRPRPVGCPRP	0.304
RRIRTRPPRLPRPRPRPVGQPRP	0.00905
RRIRTRPPRLPRPRPRPVGTPRP	-0.201
RRIRTRPPRLPRPRPRPVHFPRP	0.218
